Source: publication PMC12170345 (Nature Structural & Molecular Biology, 2025)

T1: CCDC66 (full length, GFP- or mCherry-tagged) (human, UniProt A2RUB6 1-948)
T1 construct: CCDC66, human, full-length protein; source: HEK293T, transiently transfected; purified (StrepTactin beads) for in vitro assays; in lysate for coimmunoprecipitation; not shown: GFP or mCherry, N-terminal, kept
T1 sequence (looked up): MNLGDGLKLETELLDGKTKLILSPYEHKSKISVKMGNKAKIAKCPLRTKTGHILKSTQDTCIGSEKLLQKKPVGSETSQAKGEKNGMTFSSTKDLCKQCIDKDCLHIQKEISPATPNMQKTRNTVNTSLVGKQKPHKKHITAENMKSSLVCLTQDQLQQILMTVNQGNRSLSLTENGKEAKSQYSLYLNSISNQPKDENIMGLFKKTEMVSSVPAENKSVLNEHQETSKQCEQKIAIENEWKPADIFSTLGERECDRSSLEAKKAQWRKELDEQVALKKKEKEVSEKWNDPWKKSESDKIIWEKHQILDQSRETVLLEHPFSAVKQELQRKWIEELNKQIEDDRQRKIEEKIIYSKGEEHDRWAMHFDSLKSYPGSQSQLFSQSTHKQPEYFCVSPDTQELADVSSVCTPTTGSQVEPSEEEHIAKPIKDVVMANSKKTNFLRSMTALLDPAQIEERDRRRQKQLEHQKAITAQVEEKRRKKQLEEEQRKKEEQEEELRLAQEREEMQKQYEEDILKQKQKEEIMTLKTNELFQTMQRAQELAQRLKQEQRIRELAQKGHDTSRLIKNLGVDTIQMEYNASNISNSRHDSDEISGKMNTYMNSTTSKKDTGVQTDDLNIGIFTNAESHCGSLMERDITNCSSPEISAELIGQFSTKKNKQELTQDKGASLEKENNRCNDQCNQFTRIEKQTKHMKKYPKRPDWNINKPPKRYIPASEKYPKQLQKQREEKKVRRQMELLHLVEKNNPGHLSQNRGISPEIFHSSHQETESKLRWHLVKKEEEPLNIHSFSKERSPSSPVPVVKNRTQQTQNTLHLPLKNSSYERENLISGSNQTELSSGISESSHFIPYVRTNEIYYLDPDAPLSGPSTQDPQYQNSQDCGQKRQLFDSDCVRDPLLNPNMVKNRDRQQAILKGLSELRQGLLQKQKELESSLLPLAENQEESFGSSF


Columns and labels:
[1] = molecular target: TOGARAM1 (mouse, full length, GFP- or mCherry-tagged) (mouse, UniProt Q6A070 1-1776); test: cell-based or functional assay
Chain of TOGARAM1 (mouse, full length, GFP- or mCherry-tagged) (Q6A070 whole entry): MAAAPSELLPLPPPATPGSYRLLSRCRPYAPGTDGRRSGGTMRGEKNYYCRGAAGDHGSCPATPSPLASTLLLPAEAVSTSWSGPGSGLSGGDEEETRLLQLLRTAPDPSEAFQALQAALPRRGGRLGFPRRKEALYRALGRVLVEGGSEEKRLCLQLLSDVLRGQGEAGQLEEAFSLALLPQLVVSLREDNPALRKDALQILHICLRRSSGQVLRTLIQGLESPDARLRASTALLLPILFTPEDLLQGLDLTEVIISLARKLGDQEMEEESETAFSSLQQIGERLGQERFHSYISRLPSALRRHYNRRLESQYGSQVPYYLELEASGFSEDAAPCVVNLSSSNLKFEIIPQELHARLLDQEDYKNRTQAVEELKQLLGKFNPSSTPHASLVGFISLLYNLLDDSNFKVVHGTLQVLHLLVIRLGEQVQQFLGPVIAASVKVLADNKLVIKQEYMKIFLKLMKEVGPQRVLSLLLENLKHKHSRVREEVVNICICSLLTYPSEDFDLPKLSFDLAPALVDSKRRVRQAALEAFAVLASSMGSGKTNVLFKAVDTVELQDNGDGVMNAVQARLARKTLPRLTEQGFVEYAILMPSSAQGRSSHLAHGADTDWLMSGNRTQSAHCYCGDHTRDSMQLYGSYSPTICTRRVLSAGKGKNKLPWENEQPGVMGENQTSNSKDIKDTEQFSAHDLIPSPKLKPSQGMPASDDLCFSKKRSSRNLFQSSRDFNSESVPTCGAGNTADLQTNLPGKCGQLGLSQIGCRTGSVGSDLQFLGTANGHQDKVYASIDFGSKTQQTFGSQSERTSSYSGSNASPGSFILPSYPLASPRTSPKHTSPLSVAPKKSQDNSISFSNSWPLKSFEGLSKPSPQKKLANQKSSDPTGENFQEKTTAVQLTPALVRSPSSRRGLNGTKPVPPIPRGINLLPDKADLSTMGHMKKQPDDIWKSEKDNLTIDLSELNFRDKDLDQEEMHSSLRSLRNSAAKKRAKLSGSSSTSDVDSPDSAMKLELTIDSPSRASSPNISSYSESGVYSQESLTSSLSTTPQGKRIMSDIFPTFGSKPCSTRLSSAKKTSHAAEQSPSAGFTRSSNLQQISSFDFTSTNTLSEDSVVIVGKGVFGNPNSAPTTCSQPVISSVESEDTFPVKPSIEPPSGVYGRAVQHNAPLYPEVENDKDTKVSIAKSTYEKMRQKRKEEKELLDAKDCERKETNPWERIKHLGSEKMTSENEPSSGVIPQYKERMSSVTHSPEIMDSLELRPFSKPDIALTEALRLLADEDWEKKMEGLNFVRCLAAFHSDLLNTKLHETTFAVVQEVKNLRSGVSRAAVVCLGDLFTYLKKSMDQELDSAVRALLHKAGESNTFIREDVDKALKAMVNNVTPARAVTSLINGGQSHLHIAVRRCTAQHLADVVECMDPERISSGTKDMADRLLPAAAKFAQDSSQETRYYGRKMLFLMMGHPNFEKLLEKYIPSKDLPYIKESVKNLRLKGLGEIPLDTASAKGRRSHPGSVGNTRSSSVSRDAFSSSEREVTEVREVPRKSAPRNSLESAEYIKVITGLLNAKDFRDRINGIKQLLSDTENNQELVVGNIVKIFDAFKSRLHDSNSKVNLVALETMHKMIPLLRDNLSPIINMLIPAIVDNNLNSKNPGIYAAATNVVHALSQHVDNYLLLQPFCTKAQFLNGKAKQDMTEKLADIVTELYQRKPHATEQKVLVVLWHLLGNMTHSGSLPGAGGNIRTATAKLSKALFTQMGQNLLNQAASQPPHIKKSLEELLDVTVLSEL

[2] = molecular target: the molecule itself; test: single-molecule fluorescence intensity counting (TIRF microscopy); GFP-tagged protein diluted in PBS and immobilised on a plasma-cleaned coverslip; intensities compared with single GFP and GFP–EB3 dimers in adjacent chambers
[3] = molecular target: T1, CCDC66 (full length, GFP- or …); test: in vitro reconstitution on dynamic microtubules (TIRF microscopy); recruitment of one fluorescent protein to MTs by another that is on the MTs; 15 µM tubulin, with or without 20 nM EB3; MRB80, 50 mM KCl, 1 mM GTP, 30 °C; conditions: both partners purified

| rescue activity of TOGARAM1 on MTs in the presence of ARMC9 [1] | binding result [3] | Binder | stoichiometry N [2] |
| --- | --- | --- | --- |
| ~2 fold | – | ARMC9 (full length, GFP- or mCherry-tagged) (natural protein, human, UniProt Q7Z3E5 1-818, looked up, ARMC9, human, full-length protein; Dimer by single-molecule counting; multimers by SEC; also called GFP–ARMC9; GFP-ARMC9 FL; source: HEK293T, transiently transfected; purified (StrepTactin beads) for in vitro assays; in lysate for coimmunoprecipitation; not shown: GFP or mCherry, N-terminal, kept) MGDILAHESELLGLVKEYLDFAEFEDTLKTFSKECKIKGKPLCKTVGGSFRDSKSLTIQKDLVAAFDNGDQKVFFDLWEEHISSSIRDGDSFAQKLEFYLHIHFAIYLLKYSVGRPDKEELDEKISYFKTYLETKGAALSQTTEFLPFYALPFVPNPMVHPSFKELFQDSWTPELKLKLIKFLALISKASNTPKLLTIYKENGQSNKEILQQLHQQLVEAERRSVTYLKRYNKIQADYHNLIGVTAELVDSLEATVSGKMITPEYLQSVCVRLFSNQMRQSLAHSVDFTRPGTASTMLRASLAPVKLKDVPLLPSLDYEKLKKDLILGSDRLKAFLLQALRWRLTTSHPGEQRETVLQAYISNDLLDCYSHNQRSVLQLLHSTSDVVRQYMARLINAFASLAEGRLYLAQNTKVLQMLEGRLKEEDKDIITRENVLGALQKFSLRRPLQTAMIQDGLIFWLVDVLKDPDCLSDYTLEYSVALLMNLCLRSTGKNMCAKVAGLVLKVLSDLLGHENHEIQPYVNGALYSILSVPSIREEARAMGMEDILRCFIKEGNAEMIRQIEFIIKQLNSEELPDGVLESDDDEDEDDEEDHDIMEADLDKDELIQPQLGELSGEKLLTTEYLGIMTNTGKTRRKGLANVQWSGDEPLQRPVTPGGHRNGYPVVEDQHTPPQTAQHARNGHPQALPAAHEAVYREGKPSTPESCVSSSSAIIAKPGEWLPRGRQEEPRPAPTGTPRQPREAPQDPGNGVTTRECASAFTCKPRAPCTPEMLDWNPPKAKASVLAPLFSSCGPQQASRPGSTASSTRGLPSSQSHRK | 2 |
| – | binds | CEP104 (full length, GFP- or mCherry-tagged) (natural protein, human, UniProt O60308 1-925, looked up, CEP104, human, full-length protein; Cloned into pTT5-C1-based expression vectors (vector: Addgene 52355); Dimer by single-molecule counting; also called GFP–CEP104; mCherry–CEP104; source: HEK293T, transiently transfected; purified (StrepTactin beads) for in vitro assays; in lysate for coimmunoprecipitation; not shown: GFP or mCherry, N-terminal, kept) MPHKIGFVVVSSSGHEDGFSARELMIHAPTVSGWRSPRFCQFPQEIVLQMVERCRIRKLQLLAHQYMISSKIEFYISESLPEYFAPYQAERFRRLGYVSLCDNEKTGCKARELKSVYVDAVGQFLKLIFHQNHVNKYNIYNQVALVAINIIGDPADFSDESNTASREKLIDHYLGHNSEDPALEGTYARKSDYISPLDDLAFDMYQDPEVAQIIRKLDERKREAVQKERYDYAKKLKQAIADLQKVGERLGRYEVEKRCAVEKEDYDLAKEKKQQMEQYRAEVYEQLELHSLLDAELMRRPFDLPLQPLARSGSPCHQKPMPSLPQLEERGTENQFAEPFLQEKPSSYSLTISPQHSAVDPLLPATDPHPKINAESLPYDERPLPAIRKHYGEAVVEPEMSNADISDARRGGMLGEPEPLTEKALREASSAIDVLGETLVAEAYCKTWSYREDALLALSKKLMEMPVGTPKEDLKNTLRASVFLVRRAIKDIVTSVFQASLKLLKMIITQYIPKHKLSKLETAHCVERTIPVLLTRTGDSSARLRVTAANFIQEMALFKEVKSLQIIPSYLVQPLKANSSVHLAMSQMGLLARLLKDLGTGSSGFTIDNVMKFSVSALEHRVYEVRETAVRIILDMYRQHQASILEYLPPDDSNTRRNILYKTIFEGFAKIDGRATDAEMRARRKAATEEAEKQKKEEIKALQGQLAALKEIQAEVQEKESDAVKPKNQDIQGGKAAPAEALGIPDEHYLDNLCIFCGERSESFTEEGLDLHYWKHCLMLTRCDHCKQVVEISSLTEHLLTECDKKDGFGKCYRCSEAVFKEELPRHIKHKDCNPAKPEKLANRCPLCHENFSPGEEAWKAHLMGPAGCTMNLRKTHILQKAPALQPGKSSAVAASGPLGSKAGSKIPTPKGGLSKSSSRTYAKR | 2 |
